Measured values taken from publication PMC7890063, “Bioinformatics-aided identification, characterization and applications of mushroom linalool synthases” (Communications Biology, 2021).

Tests used:
Ap.LS (Agrped1_689675) = assay: PPi release, EnzChek pyrophosphate assay; format: biochemical, Agrocybe pediades; details: 37 °C, 1 h; enzyme 71.2% pure; product (R)-linalool; read-out: Monoterpene synthase
Text: PPi release, EnzChek pyrophosphate assay on Ap.LS (Agrped1_689675)

Sc.LNS = target: T1, Sc.LNS (Streptomyces clavuligerus, UniProt D5SL78); assay: product formation in E. coli, GC-MS; format: cell-based; details: E. coli with mevalonate pathway; product nerolidol
T1 construct: gene SCLAV_p1185; codon-optimised gene in pET-11a, expressed in E. coli with mevalonate pathway, not purified
T1 sequence (D5SL78 1-329): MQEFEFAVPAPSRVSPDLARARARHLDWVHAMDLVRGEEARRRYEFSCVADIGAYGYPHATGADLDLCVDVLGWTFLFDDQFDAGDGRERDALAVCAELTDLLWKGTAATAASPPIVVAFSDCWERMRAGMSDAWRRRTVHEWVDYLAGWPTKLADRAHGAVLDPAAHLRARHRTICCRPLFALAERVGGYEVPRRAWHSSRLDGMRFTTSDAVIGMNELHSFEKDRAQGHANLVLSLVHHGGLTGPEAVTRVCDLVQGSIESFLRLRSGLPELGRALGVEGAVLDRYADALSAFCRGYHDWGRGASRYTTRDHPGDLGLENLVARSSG

[1] = substrate: CC(C)=CCC/C(C)=C/CC/C(C)=C/CO[P@@](=O)(O)OP(=O)(O)O; assay: PPi release, EnzChek pyrophosphate assay; format: biochemical, Cyclocybe aegerita; details: 37 °C, 1 h, enzyme 16.3% pure, product nerolidol
Text: (§1) PPi release, EnzChek pyrophosphate assay on Aa.LNS (AAE3_109435)

[2] = substrate: CC(C)=CCC/C(C)=C/COP(=O)(O)OP(=O)(O)O; assay: PPi release, EnzChek pyrophosphate assay; format: biochemical, Cyclocybe aegerita; details: 37 °C, 1 h, enzyme 16.3% pure, product (R)-linalool
Text: as §1

## CC(C)=CCC/C(C)=C/COP(=O)(O)OP(=O)(O)O [GPP]
Ap.LS (Agrped1_689675)
  Km: 3.8 ± 0.7 µM

## CC(C)=CCC/C(C)=C/CC/C(C)=C/COP(=O)(O)OP(=O)(O)O [(E,E)-FPP]
Sc.LNS
  product formation in E. coli, GC-MS: Sc.LNS produced a larger amount of nerolidol than linalool in E. coli

B1: Aa.LNS (AAE3_109435) (Cyclocybe aegerita) (protein)
chain: MHSSTQLFTHSPTKMQIILPDLLCSWGYKGFLNPHYEGAKAESNTWIRPLVVKLFDERGQKAFAKDYTGLLASMTYPHHNKEFLCVACDMMNLFFVYDEYTDITPPETAQRLAKIVVNAMRNPDEIAALGEDSIGTMTKQFWRRAMTLLPPNGCNSESCIQHFIDYTEEYLTAVTREACDRSSGSVHAVKDYLAMRRATSGAGLMVGLLEFGLDLPEEVMKHEVIQELSTGAIDMYCLLNDMHSYASELSSGQASHNVITVVMHERNLSLQEAFDWLASYAAGVVKGFKTNLNRVPSFSELEDHSLHGEGMLRDRIQRYIDGLGQAVRAEDDWAFETTRYHGQNGPQIKLTRMLTIRPQVKDNYAKQAPRVEAPERPMLLEVRS
[1]
  Km: 9.0 ± 2.3 µM
  kcat: 0.055 ± 0.005 s⁻¹
  kcat/Km: 6670 M⁻¹ s⁻¹
[2]
  Km: 6.7 ± 4.6 µM
  kcat: 0.00833 ± 0.00167 s⁻¹
  kcat/Km: 1670 M⁻¹ s⁻¹
